Laboratory results published in the supplement of paper PMC7877785.
± gives the uncertainty stated by the source.

Test: self-splicing fitness, log relative to wild type (ln ratio); higher = more splicing; Tetrahymena group I intron in knt gene, E. coli kanamycin selection, DiMSum; sequences stand for … in CUCUCU…GGAGGGAAAAGUUAUCAGGCAUGCACCUGGUAGCUAGUCUUUAAACCAAUAGAUUGCAUCGGUUUAAAAGGCAAGACCGUCAAAUUGCGGGAAAGGGGUCAACAGCCGUUCAGUACCAAGUCUCAGGGGAAACUUUGAGAUGGCCUUGCAAAGGGUAUGGUAAUAAGCUGACGGACAUGGUCCUAACCACGCAGCCAAGUCCUAAGUCAACAGAUCUUCUGUUGAUAUGGAUGCAGUUCACAGACUAAAUGUCGGUCGGGGAAGAUGUAUUCUUCUCAUAAGAUAUAGUCGGACCUCUCCUUAAUGGGAGCUAGCGGAUGAAGUGAUGCAACACUGGAGCCGCUGGGAACUAAUUUGUAUGCGAAAGUAUAUUGAUUAGUUUUGGAGUACUCGUGGUCG
Method in brief: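 The eight P1ex-region nucleotides of an intron in the knt kanamycin-resistance gene on pET-22b(+) were all randomised and the library put into E. coli BL21(DE3). Six replicate transformations were grown overnight at 37°C or 30°C on LB agar with or without 25 μg/mL kanamycin, together with 100 μg/mL carbenicillin, 50 μM IPTG and 0.2% rhamnose. Colonies were pooled and amplicon-sequenced on an Illumina HiSeq 2500. Fitness from DiMSum is the error-weighted combination of wild-type-normalised replicate fold changes, kanamycin over none.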

Sequence	self-splicing fitness (ln) (30 °C)	self-splicing fitness (ln) (37 °C)
CAUAAGCAAUAUUACGAAGA	-2.84 ± 0.37	-3.15 ± 0.33
UCGCAGCAAUAUUACGGUUG	-2.75 ± 0.1	-1.47 ± 0.12
CCCAAGCAAUAUUACGCUCU	-3.91 ± 0.26	-2.16 ± 0.18
UUCGAGCAAUAUUACGUGCG	-3.18 ± 0.23	-2.18 ± 0.26
GACUAGCAAUAUUACGGUAC	-2.1 ± 0.2	-1.2 ± 0.18
CGACAGCAAUAUUACGUGUG	-2.2 ± 0.067	-1.1 ± 0.07
ACCCAGCAAUAUUACGCGGU	-3.41 ± 0.18	-3.42 ± 0.21
CUGUAGCAAUAUUACGCAAU	-2.63 ± 0.36	-1.99 ± 0.25
UCGUAGCAAUAUUACGUGAA	-2.73 ± 0.16	-1.8 ± 0.17
AAGCAGCAAUAUUACGCGAU	-3.31 ± 0.18	-3.25 ± 0.18
GUAUAGCAAUAUUACGAUAA	-0.869 ± 0.12	-0.771 ± 0.16
GAUGAGCAAUAUUACGCGAA	-3.16 ± 0.16	-2.04 ± 0.17
AUAGAGCAAUAUUACGGGAG	-4.25 ± 0.24	-2.26 ± 0.22
UCCGAGCAAUAUUACGGAAG	-3.67 ± 0.44	-1.82 ± 0.28
CACCAGCAAUAUUACGCCCA	-1.72 ± 0.099	-1.71 ± 0.13
CCUCAGCAAUAUUACGCUAG	-4.45 ± 0.38	-1.04 ± 0.22
GCGUAGCAAUAUUACGAGUC	-2.81 ± 0.22	-2.17 ± 0.23
ACCUAGCAAUAUUACGAAGC	-1.56 ± 0.11	-0.832 ± 0.15
AACCAGCAAUAUUACGCCUU	-0.506 ± 0.053	0.096 ± 0.07
GAAGAGCAAUAUUACGCGAC	-3.8 ± 0.36	-1.18 ± 0.18
AAGAAGCAAUAUUACGAGCC	-2.58 ± 0.2	-2.58 ± 0.29
CUAAAGCAAUAUUACGUCCU	-3.29 ± 0.24	-1.92 ± 0.26
GACAAGCAAUAUUACGCAUG	-2.33 ± 0.13	-0.814 ± 0.14
AGCUAGCAAUAUUACGCAUU	-3 ± 0.19	-1.48 ± 0.14

Sequence	self-splicing fitness (ln) (30 °C)	self-splicing fitness (ln) (37 °C)
UAUAAGCAAUAUUACGAUCU	-1.22 ± 0.11	0.0539 ± 0.12
ACAAAGCAAUAUUACGCCAA	-2.34 ± 0.24	-1.86 ± 0.18
AGCUAGCAAUAUUACGCAUA	-2.4 ± 0.12	-1.22 ± 0.14
CAAAAGCAAUAUUACGUCAC	-3.63 ± 0.28	-2.06 ± 0.2
GGGCAGCAAUAUUACGUGUG	-2.34 ± 0.14	-1.26 ± 0.16
AGGGAGCAAUAUUACGCCCG	-3.31 ± 0.5	-0.737 ± 0.49
CAACAGCAAUAUUACGCUCU	-1.33 ± 0.079	-0.581 ± 0.1
GUGCAGCAAUAUUACGGGAC	-2.09 ± 0.19	-2.82 ± 0.48
ACCGAGCAAUAUUACGCCGA	-2.48 ± 0.47	-2.74 ± 0.38
AAAGAGCAAUAUUACGGGUG	-3.95 ± 0.21	-1.88 ± 0.19
AAGCAGCAAUAUUACGGCAU	-0.221 ± 0.083	0.127 ± 0.1
AUACAGCAAUAUUACGGCAC	-1.18 ± 0.087	-0.127 ± 0.12
GUUUAGCAAUAUUACGCGUU	-1.75 ± 0.16	-0.943 ± 0.2
CUUGAGCAAUAUUACGUACA	-1.97 ± 0.4	-1.77 ± 0.38
CUUAAGCAAUAUUACGAUUA	-3.71 ± 0.26	-2.72 ± 0.21
UACCAGCAAUAUUACGGUCC	-1.55 ± 0.11	-0.0163 ± 0.11
AAUCAGCAAUAUUACGUCAG	-1.86 ± 0.12	-0.81 ± 0.12
UCGAAGCAAUAUUACGCAAU		-2.03 ± 0.27
UGCCAGCAAUAUUACGAUGA	-1.99 ± 0.14	-0.997 ± 0.12
AUCAAGCAAUAUUACGCAUU	-2.32 ± 0.12	-1.69 ± 0.14
UCUCAGCAAUAUUACGUGCC	-3.38 ± 0.26	-1.71 ± 0.23
AUCAAGCAAUAUUACGAGCU	-1.24 ± 0.084	-0.596 ± 0.1
AGAUAGCAAUAUUACGGAAG	-3.57 ± 0.22	-2.02 ± 0.19
